Article PMC7357788, “Overlapping functions and protein-protein interactions of LRR-extensins in Arabidopsis” (PLoS Genetics, 2020)
“Also recorded” adds a separate entry of the source. Ends that are not written are not given here.

Tests used:
LRX3, LRX4, and LRX5 = conditions: vegetative tissues; ref [40],[41]; cited from earlier work
Source text: LRX proteins were recently identified as high-affinity binding sites for RALF peptides, with the binding spectrum differing among the LRXs. […] Whether and how the binding of RALFs and FER to LRXs influences the interaction of these proteins remains to be investigated. It is also unknown to what extent the different LRXs are functionally similar and whether they share FER as a common interaction ...

FLS2-BAK1 = conditions: ref [17]; cited from earlier work
Source text: Different LRXs bind an overlapping but not identical array of RALF peptides, and the full binding spectrum of the different LRXs might be even broader. One reason for the distinct RALF binding spectrum of LRXs is based on their expression pattern. […] It can be speculated that the diverse affinities of RALFs and LRXs contribute to the specificities of the plant’s response to different RALF peptides that have distinct biological activities [[17],[18],[19],[20],[26 ...

LRX1^ΔE = experiment: Co-IP of LRX1^ΔE-HA with RALF1-FLAG; type: binding, Arabidopsis thaliana; conditions: Co-IP and immunoblotting, transient expression in N. benthamiana
Method: Here, we tested binding of RALF1 to LRX1.
For pulldown and Co-IP analysis of the different constructs indicated in the experiments DNA was infiltrated into Nicotiana benthamiana leaves, and after 48 hrs, the leaves were excised and ground in liquid nitrogen as described in [62]. Two hundred mg of tissue powder was re-suspended in 500 μL extraction buffer [200 mM Tris-HCl (pH 7.5), 150 mM NaCl, 1 mM PMSF, protease inhibitor and 0.5% Triton X-100]. The suspension was incubated on ice for 30 minutes and then centrifuged at 11,000 rpm for 20 minutes at 4°C. The supernatant (200 μL) was then incubated with 10 μL anti-HA (Thermo Scientific, 88837), or anti-FLAG magnetic beads overnight at 4°C on a rotating shaker. If RALF1 peptide was added, the peptide was diluted in such way that for every sample 1μL of peptide was added to the protein extracts. After incubation, the beads were washed five times with the wash buffer (extraction buffer containing 0.05% Triton X-100) and boiled in SDS-PAGE loading buffer for 15 minutes at 75°C. The immunoprecipitates were then run on an SDS-PAGE gel and transferred to nitrocellulose membrane to perform immunoblotting using the following antibodies: anti-FLAG M2 (Sigma-Aldrich, F3165), anti-GFP (Biolegend, 902601), anti-HA-HRP 3F10 (Roche, 12 013 819 001) and anti-mouse-HRP (Sigma Aldrich, A 4416). […]

FER^ECD [1] = experiment: Co-IP of LRX^ΔE with FER^ECD-Citrine; type: binding, Arabidopsis thaliana; conditions: proteins expressed in N. benthamiana
Source text: The root hair-localized LRX1 is so far the best characterized LRX protein and the lrx1 root hair mutant represents a convenient genetic system for analyses of LRX protein function. […] To this end, constructs encoding LRX1^ΔE-FLAG and the extracellular domain of FER fused to citrine (FER^ECD-Citrine) under the 35S promoter were expressed in tobacco for Co-IP experiments. […] The Y2H experiments were extended to other LRXs of vegetative tissues, namely the LRR domains of LRX2, LRX3, LRX4, and LRX5.
For pulldown and Co-IP analysis of the different constructs indicated in the experiments DNA was infiltrated into Nicotiana benthamiana leaves, and after 48 hrs, the leaves were excised and ground in liquid nitrogen as described in [62]. Two hundred mg of tissue powder was re-suspended in 500 μL extraction buffer [200 mM Tris-HCl (pH 7.5), 150 mM NaCl, 1 mM PMSF, protease inhibitor and 0.5% Triton X-100]. The suspension was incubated on ice for 30 minutes and then centrifuged at 11,000 rpm for 20 minutes at 4°C. The supernatant (200 μL) was then incubated with 10 μL anti-HA (Thermo Scientific, 88837), or anti-FLAG magnetic beads overnight at 4°C on a rotating shaker. If RALF1 peptide was added, the peptide was diluted in such way that for every sample 1μL of peptide was added to the protein extracts. […]

FER^ECD [2] = experiment: Yeast-two-hybrid LRX LRR domain-FER^ECD; type: binding, Arabidopsis thaliana; conditions: Y2H, yeast strain PJ69-4A, LRR domains, -Trp, Leu, His, Ade drop-out medium containing 5 mM 3-AT
Source text: The BD-LRX4 and AD-FER^ECD constructs for the Yeast-two-hybrid experiment were cloned as previously described, where NtermFER equals AD-FER^ECD and LRR4 equals BD-LRX4. For the BD-LRX1/2/3/5 constructs, the coding sequence of the LRR domain of the LRXs was amplified using primers (S3 Table) to introduce a BamHI and a XhoI site at the 5’ and 3’ end of the PCR fragments, respectively. These were cloned into pJET1.2 (Thermo Scientific) and correct clones were cut with BamHI and XhoI and ligated into pGBKT7 cut with BamHI and SalI. The AD-RALF1 construct was cloned into pJET1.2 (Thermo Scientific) by amplification of the coding sequence with the primers y2h_RALF1_F and y2h_RALF1_R. A correct clone was cut with EcoRI and XmaI and ligated into pGADT7 cut with EcoRI and XmaI.
Transformation of the yeast strain PJ69-4A [63] was done following standard procedures and quadruple drop-out medium lacking Leu, Trp, His, and Ade were used to screen for positive interactions after 4 days incubation at 30°C. Three different colonies containing both vectors were mixed and plated in triplicates on quadruple drop-out medium.
Supplementary file pgen.1008847.s001.pdf: S1 Fig Interaction of LRXs and FER in yeast-two-hybrid assays. […]

[3] = target: LRX5^ΔE-FLAG (Arabidopsis thaliana) (UniProt Q9SN46); experiment: BLI; BLITZ; LRX^ΔE-FLAG mixed with anti-FLAG M2 antibody and loaded onto a protein A biosensor; synthetic RALF1 peptide added at 0.2-200 μM; association 120 s, dissociation 120 s; sample diluent buffer (Pall FortéBio)
[4] = target: LRX3^ΔE-FLAG (Arabidopsis thaliana) (UniProt Q9T0K5); experiment: as above
[5] = target: LRX4^ΔE-FLAG (Arabidopsis thaliana) (UniProt Q9LHF1); experiment: as above
[6] = target: LRX1^ΔE-FLAG (Arabidopsis thaliana); experiment: as above

Chain of LRX5^ΔE-FLAG (Arabidopsis thaliana) (Q9SN46 32-857, stated change not applied): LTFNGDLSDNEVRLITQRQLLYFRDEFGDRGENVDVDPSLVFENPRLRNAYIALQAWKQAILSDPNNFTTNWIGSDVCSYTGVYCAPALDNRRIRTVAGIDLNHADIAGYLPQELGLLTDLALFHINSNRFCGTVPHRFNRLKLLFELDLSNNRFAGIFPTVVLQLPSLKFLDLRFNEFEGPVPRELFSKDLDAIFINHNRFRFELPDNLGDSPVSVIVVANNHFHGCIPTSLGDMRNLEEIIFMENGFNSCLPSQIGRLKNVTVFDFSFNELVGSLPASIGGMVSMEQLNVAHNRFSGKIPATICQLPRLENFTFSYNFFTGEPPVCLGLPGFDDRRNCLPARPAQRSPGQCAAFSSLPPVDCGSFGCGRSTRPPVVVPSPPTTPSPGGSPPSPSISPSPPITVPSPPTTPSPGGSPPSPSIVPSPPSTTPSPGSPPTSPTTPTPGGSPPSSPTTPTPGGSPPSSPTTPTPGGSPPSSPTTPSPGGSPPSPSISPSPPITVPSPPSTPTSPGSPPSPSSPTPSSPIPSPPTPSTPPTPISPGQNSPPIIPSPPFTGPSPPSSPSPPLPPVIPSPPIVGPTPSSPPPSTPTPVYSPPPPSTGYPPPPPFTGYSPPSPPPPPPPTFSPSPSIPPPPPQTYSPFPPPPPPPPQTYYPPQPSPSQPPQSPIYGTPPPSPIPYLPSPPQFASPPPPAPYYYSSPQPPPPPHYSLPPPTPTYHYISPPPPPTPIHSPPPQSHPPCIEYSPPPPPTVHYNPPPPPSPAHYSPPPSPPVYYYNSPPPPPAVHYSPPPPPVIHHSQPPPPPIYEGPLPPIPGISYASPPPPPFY
Chain of LRX4^ΔE-FLAG (Arabidopsis thaliana) (Q9LHF1 26-494, stated change not applied): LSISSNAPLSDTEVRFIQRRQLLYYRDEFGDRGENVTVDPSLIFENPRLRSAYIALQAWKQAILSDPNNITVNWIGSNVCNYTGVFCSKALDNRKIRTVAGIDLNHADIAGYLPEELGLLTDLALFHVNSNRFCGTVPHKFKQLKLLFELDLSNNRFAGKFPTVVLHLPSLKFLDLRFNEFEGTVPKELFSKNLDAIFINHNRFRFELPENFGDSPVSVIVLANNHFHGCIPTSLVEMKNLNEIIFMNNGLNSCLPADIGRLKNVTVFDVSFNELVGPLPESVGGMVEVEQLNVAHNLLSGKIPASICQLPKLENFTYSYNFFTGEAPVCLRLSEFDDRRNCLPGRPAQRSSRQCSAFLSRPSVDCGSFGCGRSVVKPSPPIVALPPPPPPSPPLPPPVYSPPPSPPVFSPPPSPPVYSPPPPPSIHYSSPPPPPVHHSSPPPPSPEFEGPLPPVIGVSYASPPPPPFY

Question: For “RALF23: RALF peptide reported to be bound by LRX3, LRX4, and LRX5 (ATRRYISYGALRRNTIPCSRRGASYYNCRRGAQANPYSRGCSAITRCRRS; UniProt Q9LUS7 89-138, looked up)”, which “binding to LRX3, LRX4, and LRX5” value (LRX3, LRX4, and LRX5) is on record?
Answer: reported to bind

Question: What about the “effect on scaffolding function of FER” value (FLS2-BAK1) of the same molecule?
Answer: inducing the dissociation of FLS2 from BAK1

Question: For “RALF1-FLAG: FLAG-tagged RALF1 transiently expressed in N. benthamiana (ATTKYISYQSLKRNSVPCSRRGASYYNCQNGAQANPYSRGCSKIARCRS; ends and bridges not checked; also: FLAG tag, site not given here; UniProt Q9SRY3 72-120, looked up)”, which “interaction with LRX1^ΔE” value (LRX1^ΔE) is on record?
Answer: showed interaction of the two proteins

B1: LRX3^ΔE: LRX3 lacking the extensin domain (protein)
chain: LSISSDGGVLSDNEVRHIQRRQLLEFAERSVKITVDPSLNFENPRLRNAYIALQAWKQAILSDPNNFTSNWIGSNVCNYTGVFCSPALDNRKIRTVAGIDLNHADIAGYLPEELGLLSDLALFHVNSNRFCGTVPHRFNRLKLLFELDLSNNRFAGKFPTVVLQLPSLKFLDLRFNEFEGTVPKELFSKDLDAIFINHNRFRFELPENFGDSPVSVIVLANNRFHGCVPSSLVEMKNLNEIIFMNNGLNSCLPSDIGRLKNVTVFDVSFNELVGPLPESVGEMVSVEQLNVAHNMLSGKIPASICQLPKLENFTYSYNFFTGEAPVCLRLPEFDDRRNCLPGRPAQRSPGQCKAFLSRPPVNCGSFSCGRSVSPRPPVVTPLPPPSLPSPPPPAPIFSTPPTLTSPPPPSPPPPVYSPPPPPPPPPPVYSPPPPPPPPPPPPVYSPPPPPPPPPPPPPVYSPPPPSPPPPPPPVYSPPPPPPPPPPPPVYSPPPPPVYSSPPPPPSPAPTPVYCTRPPPPPPHSPPPPQFSPPPPEPYYYSSPPPPHSSPPPHSPPPPHSPPPPIYPYLSPPPPPTPVSSPPPTPVYSPPPPPPCIEPPPPPPCIEYSPPPPPPVVHYSSPPPPPVYYSSPPPPPVYYSSPPPPPPVHYSSPPPPEVHYHSPPPSPVHYSSPPPPPSAPCEESPPPAPVVHHSPPPPMVHHSPPPPVIHQSPPPPSPEYEGPLPPVIGVSYASPPPPPFY
modifications: left off: double FLAG, C-terminal, kept
notes: LRX3 lacking the extensin domain
Question: For B1, which “interaction with FER^ECD” value (FER^ECD [1]) is on record?
Answer: revealed interaction of the two proteins; also recorded: show interaction with FER^ECD

B2: LRX1: LRR domain of LRX1 (BD-LRX1), gene At1g12040 (protein)
chain: MLFPPLRSLFLFTLLLSSVCFLQIKADHDDESDLGSDIKVDKRLKFENPKLRQAYIALQSWKKAIFSDPFNFTANWNGSDVCSYNGIYCAPSPSYPKTRVVAGIDLNHADMAGYLASELGLLSDLALFHINSNRFCGEVPLTFNRMKLLYELDLSNNRFVGKFPKVVLSLPSLKFLDLRYNEFEGKIPSKLFDRELDAIFLNHNRFRFGIPKNMGNSPVSALVLADNNLGGCIPGSIGQMGKTLNELILSNDNLTGCLPPQIGNLKKVTVFDITSNRLQGPLPSSVGNMKSLEELHVANNAFTGVIPPSICQLSNLENFTYSSNYFSGRPPICAASLLADIVVNGTMNCITGLARQRSDKQCSSLLARPVDCSKFGCYNIFSPPPPTFKMSPEVRTLPPPIYVYSSPPPPPSSKMSPTVRAYSPPPPPSSKMSPSVRAYSPPPPPYSKMSPSVRAYPPPPPPSPSPPPPYVYSSPPPPYVYSSPPPPPYVYSSPPPPPYVYSSPPPPYVYSSPPPPYVYSSPPPPPPSPPPPCPESSPPPPVVYYAPVTQSPPPPSPVYYPPVTQSPPPPSPVYYPPVTNSPPPPSPVYYPPVTYSPPPPSPVYYPQVTPSPPPPSPLYYPPVTPSPPPPSPVYYPPVTPSPPPPSPVYYPPVTPSPPPPSPVYYPSETQSPPPPTEYYYSPSQSPPPTKACKEGHPPQATPSYEPPPEYSYSSSPPPPSPTSYFPPMPSVSYDASPPPPPSYY
modifications: left off: Gal4 DNA-binding domain (from the vector pGBKT7), end not stated, kept
notes: LRR domain of LRX1 (BD-LRX1), gene At1g12040
Question: For B2, which “interaction with FER^ECD” value (FER^ECD [2]) is on record?
Answer: confirmed in a yeast-two-hybrid (Y2H) experiment

Question: What about the “interaction with FER^ECD” value (FER^ECD [1]; listed as LRX1^ΔE) of the same molecule?
Answer: show interaction with FER^ECD

B3: synthetic RALF1 peptide (peptide)
peptide: ATTKYISYQSLKRNSVPCSRRGASYYNCQNGAQANPYSRGCSKIARCRS
Question: With B3 as the molecule, how does the Kd [3] read?
Answer: 3.5 nM

Question: What about the Kd [4] of the same molecule?
Answer: 11000 nM

Question: What about the Kd [5] of the same molecule?
Answer: 5.5 nM

Question: And the Kd [6]?
Answer: 4.5 nM
